From the DeepSol protein solubility set

Assay: soluble on expression in E. coli; label from the status in PepcDB or PDB records

Sequence | soluble on expression in E. coli
GHMAAPILKDVVAYVEVWSSNGTENYSKTFTTQLVDMGAKVSKTFNKQVTHVIFKDGYQSTWDKAQKRGVKLVSVLWVEKCRTAGAHIDESLFPAANMNEHLS | soluble
MELRVGNKYRLGRKIGSGSFGDIYLGANIASGEEVAIKLECVKTKHPQLHIESKFYKMMQGGVGIPSIKWCGAEGDYNVMVMELLGPSLEDLFNFCSRKFSLKTVLLLADQMISRIEYIHSKNFIHRDVKPDNFLMGLGKKGNLVYIIDFGLAKKYRDARTHQHIPYRENKNLTGTARYASINTHLGIEQSRRDDLESLGYVLMYFNLGSLPWQGLKAATKRQKYERISEKKMSTPIEVLCKGYPSEFSTYLNFCRSLRFDDKPDYSYLRQLFRNLFHRQGFSYDYVFDWNMLKFGAARNPEDVDRERREHEREERMGQLRGSATRALPPGPPTGATANRLRSAAEPVASTPASRIQPAGNTSPRAISRVDRERKVSMRLHRGAPANVSSSDLTGRQEVSRIPASQTSVPFDHLGK | not soluble
MKQYLELMQKVLDEGTQKNDRTGTGTLSIFGHQMRFNLQDGFPLVTTKRCHLRSIIHELLWFLQGDTNIAYLHENNVTIWDEWADENGDLGPVYGKQWRAWPTPDGRHIDQITTVLNQLKNDPDSRRIIVSAWNVGELDKMACAPSHAFFQFYVADGKLSCQLYQRSCDVFLGLPFNIASYALLVHMMAQQCDLEVGDFVWTGGDTHLYSNHMDQTHLQLSREPRPLPKLIIKRKPESIFDYRFEDFEIEGYDPHPGIKAPVAI | soluble
MDSQVEGKISPSQKESSSTSGLVSPSEDGPAHQKIHRDQLSVDQIKKIREERAQKRQVRRNSLISQGKDPDFPTPDLQFIERPFLPINHDNSKGLTPATIQVTQDSLDVKIMTYNTLAQTLIRRDFFPESGPALKWHKRSKVLVHELKKYRPDVVSLQEVDYNELNFWQENFHKLGFDVIFKRHEGKTHGLLVAWNNKKFQLDNDWMLDYDNILAGNVISARTRTKNIALIISLYFKGITDSSSRGIIVANTHLFWHPFGVFERLRQSYLVLQKIQEIKACSKYNGWHSLLMGDFNTEPEEPPYLAITKRPLILKGPIRAMVECSLAYRYSKKRNGEESDQDDEECDEKSRGEGHSDQPQNPKPESFTATKEEKALVNQLVALHNSLHVKGVSLYGIGYGKVHPENANGSHGEPGLSNWANTWCGLLDYIFYIEGDHNQDTRQKEPLNAFEGNNNVKIIGYLRMPCAQEMPKHSQPFEGEYASDHISLMCQIRLFFGGEKVHSLK | not soluble
MSSHPPIRSYVLRQGYFSNAQRHAYESLLPRYGIPLTEEPVDLDSIFGRTAPGILEIGSGMGETTAEIARQHPEKDFIAIEVHAPGIGSLLGQIEKHRLTNLRIIPHDAKLVLQQMFTSESLDGIHIFFPDPWPKARHHKRRLIQPDFVSLLCDRLKPGGYLHIATDWEDYATHILHVLRSEERFVNTAVDYAARPAYRPLTKFEQRGMKLGHTIRDIIFTRTALEHHHHHH | not soluble
MTKWKRANPNGTRDYLFEECTLIEEVEQKLRLTFLERGYEEIRTPTIEFYDVFAFQNRPIDEEKMYKFFDEKGRIIVLRPDMTIPLARVIGTQRWDTPLKVTYSGNVFRANESHSGKYNEIVQSGIEVIGIDNVRAEIECVISVIQALQKLKVQSFTIEIGQVQLYKCIVKKLSIQDEEERVLRTYIESKNYAALSNFIGEKKLDRCDETVRLLEKLPRLFGNLEVIEEAEKLASSNEMKMAIARVKEMYETIEMLGYGSYISIDLGMIQHLDYYTGVIFKGYIYEIGEEIVSGGRYDELIGNFGEMLPAVGLAVQVNQIVKALQEQQEPYERNQIDIVIHYELNRLAEAERLRNLLRKDGKNAWLSLFSNLSDTFQFARKNKIGTVVEAQNEYLVEYVWNEKWVVQKEGEASCVTFKLR | not soluble
GMKYKAAIFDMDGTILDTSADLTSALNYAFEQTGHRHDFTVEDIKNFFGSGVVVAVTRALAYEAGSSRESLVAFGTKDEQIPEAVTQTEVNRVLEVFKPYYADHCQIKTGPFPGILDLMKNLRQKGVKLAVVSNKPNEAVQVLVEELFPGSFDFALGEKSGIRRKPAPDMTSECVKVLGVPRDKCVYIGDSEIDIQTARNSEMDEIAVNWGFRSVPFLQKHGATVIVDTAEKLEEAILGE | soluble
MGSDKIHHHHHHSCGTNGSKTTSTDITEKKVIVQVPQFDADSAYKYIQAQVDFGPRTPNSKGHVACGDYLAAKLAEHGAKVISQNAELPAYDGTLLKARNIIGSFKPESKKRIALFAHWDTRPWADNDPNEKNHHTPILGANDGASGVGVLLEIARQINQQQPELGIDIIFLDAEDYGAPQFYTGEHREDQWCLGAQYWARTPHVDGYNARFGILLDMVGGKDATFFKEVYSEKYAKGINKKVWKKANDAGYGRYFINEVGGQITDDHLFINRLAGIPTIDIIPNDENCELSSFGPTWHTVNDNMDAIDRSTLKAVGQTVLEVIYNEK | not soluble
MGSDKIHHHHHHMRIILYTGKGGVGKTSISAATALQSAKQGLKTLVMSTDPAHSLGDSFGIKLSSEPLEIRENLWAQEINTIYEMEKGWGKLQKYITLLFTSKAADDITTEELTMFPGMEDLISLLRVLDYYKQNTYDVIIIDCAPTGETLAMLSFPDMLGWWMEKLFPIKRKVLKVVRPVAQPLLGVPLPTDDIMDELTNTLEQLGEMRDILSNRDVTSIRIVVNPEKMVIKEAQRSFTYLNLYDYNVDAIMINRVIPNTVIDPYFQAWKDTQKKYKTLIQNSFDPLPIYEAPMFEQEVVGLPMLERVGDALFKEDYCPTEVKFNGRTQYVKKDGDEYIFVLSIPFSNKSELALNQKGDELIIRAGSVKRNITLPKTLTHLSIQGAKFEDDVLNIRFGGVVHA | not soluble
MKPKETVCFNIKYSWHAISRMYNERASKYGTTAAVGFILLNIDVEKGTAATHIGPALGMEATSLSRVFNTMEQDGLIERRNDSSDKRKVTIFLTALGKDKRQIAKDFVLDFNNKVREQVSESKLNTFFEVLHEIQSIIDNKNTSLT | soluble
MGSDKIHHHHHHMAAVDLEKLRASGAGKAIGVLTSGGDAQGMNAAVRAVTRMGIYVGAKVFLIYEGYEGLVEGGENIKQANWLSVSNIIQLGGTIIGSARCKAFTTREGRRAAAYNLVQHGITNLCVIGGDGSLTGANIFRSEWGSLLEELVAEGKISETTARTYSHLNIAGLVGSIDNDFCGTDMTIGTDSALHRIMEVIDAITTTAQSHQRTFVLEVMGRHCGYLALVSALASGADWLFIPEAPPEDGWENFMCERLGETRSRGSRLNIIIIAEGAIDRNGKPISSSYVKDLVVQRLGFDTRVTVLGHVQRGGTPSAFDRILSSKMGMEAVMALLEATPDTPACVVTLSGNQSVRLPLMECVQMTKEVQKAMDDKRFDEATQLRGGSFENNWNIYKLLAHQKPPKEKSNFSLAILNVGAPAAGMNAAVRSAVRTGISHGHTVYVVHDGFEGLAKGQVQEVGWHDVAGWLGRGGSMLGTKRTLPKGQLESIVENIRIYGIHALLVVGGFEAYEGVLQLVEARGRYEELCIVMCVIPATISNNVPGTDFSLGSDTAVNAAMESCDRIKQSASGTKRRVFIVETMGGYCGYLATVTGIAVGADAAYVFEDPFNIHDLKVNVEHMTEKMKTDIQRGLVLRNEKCHDYYTTEFLYNLYSSEGKGVFDCRTNVLGHLQQGGAPTPFDRNYGTKLGVKAMLWLSEKLREVYRKGRVFANAPDSACVIGLKKKAVAFSPVTELKKDTDFEHRMPREQWWLSLRLMLKMLAQYRISMAAYVSGELEHVTRRTLSMDKGF | not soluble
MAHHHHHHMSTNSAKILSRVREAMKLHSINALIVPSSDPHNSEYVMDSYKCRGFLTNFNGSAGTCLITMEEAYLWTDGRYWLEAGHCLYPEWQLMRDGHPGVPSLEDFVRLNLQPDLLVGMNDNLATVAEWERRRKAINLVPIPEIVRPLMPQNSDAKAEMLSIRPEQFCGQTREEKVMALVEELKGQKCEAMILSALDEVAWLTNLRGSDVPYNPVFYSYALVRSAPDPTVALFVDSAKVSSPVEAELTQSGRSVVSVSLHPYEALEDYVRALPAGTAFLVDEYQTSQRLYSLLESCKMKVNRVKCGPAQRLKAVKNAVEIEGFRRCHVRDGVALTRYLAWLHDMIVVKGDTTITECSGADVVEGFRREQEHFVQLSFPTISSVGPNGAVVHYTPPKEGSATIVPDQLYLVDSGAQYLDGTTDVTRTVCFNPPSDEERQAYTLVLKGHLALHNAVWPTGTTGHRLDALARVHLWRYGLDYAHGTGHGVGSFLNVHEGPQGIGYRPTPTEATLAAGMIMSNEPGYYKAGKYGIRIENLEVIVRAPTRHSQEGFLTFEALTMVPLCRDLIDVSMLTADEVRLVNDYHRTVRDALTPHLRRVNDSCALAYVERHTAELCALEGGC | soluble
MDALVIRNPELLADALRGLSQSPKRMEPKWFYDAEGSALFERITELPEYYPTRTETAILTAGADRLAAHVPEGAELVELGSGASVKTRLLLDRLTGLSAYVPVDISASFLKETARALARDYPDLPIHPVVADFTKPLRLADEGHPRVGFFPGSTLGNLDPEGARALMRGVRDWPGIRGFIVGIDLIKDEDTLVRAYDDAAGVTAAFNLNLLHRMNREIGADFDPDRFAHRAIWNAEKARIEMHLESLEDQEVQIGPRRIRFRAGETIHTENSHKFSATSFAERAAEAGWRLADFLTDARRQFGVAVLEPA | not soluble
MSLVHPAGMAIMISGGIVQKIAPSDDILSEFAPWYPANSVSTDVEVIDIGEMSVVPGFVDSHTHLPWSGDRTNELTMRLRGKTYREIAQSGGGIMKTVSHTRSTPKRNLVASGISRVQECMRNGTTTLEAKSGYGLDLDSEVKLLEAISEIDRSTAIDIRATWLGAHDFPPEMGREDYVEHLISDQLPVISELSLARWVDVFCEQGWFTNEQTEDIVKASKDYGMKSRLHVDEFVDSGGLALAAELGSVSADHVACSNDDSRVSAAESGTVQTFLPGTPYVLGKSLELPIKKCITEDWPFSIATDFNPNCPITSLPLIGSFVTHRLGVDPIASLVAVTRNPATTMFDEEEPRGVISEGSIADMNVLWSSSADSWCQTPGSSPVRDTIKNGIIVNSNKTYEGHHHHHH | soluble
MGSDKIHHHHHHELVIDITRGVREPMPIAIPVFGGTDAQSSAMGRDVVGVVSNDLQGSGLFRVLDPAAYIQSLPNLAVQPQFADWRAINAQALVQGEVQPQGDGRLRVAFRLWDVFSGQQVVGRAFLTQGDNWRRVSHIIADEIYKAITGEEGYFDTRVVYVAETGPKTNRVKKLAIMDQDGANQRNLTNGESMVLTPRFSPTAQEITYLSYYNSVPRVYLFNIETGRRELLGDFPGMTFAPRFSPDGNKVIMSMALDGNTEIYEMDLRTRRSSRLTNHPSIDTSPSYAPDGRQITFNSDRGGAQQIYVMNADGSGVQRISFGDGRYATPVWSPRGDLIAFTKLKGGRFFIGAMRPDGSGEKILTEGFLVEGPTWAPNGRVLMFFRQDPNGRTTLHSIDVTGYNERQISTPTEASDPAWSPLLP | not soluble
MGNQLDRITHLNYSELPTGDPSGIEKDELRVGVAYFFSDEEEELDDRSQSDSFKDNNSPSKDGPVARNEIEYTAFCCQECIYSKLRENEDLNVYSVKTLLTMCKPGDLLELVANAQPPHWAIFEGEDQVIHLYKGEIRKDSLFEISCGRQARIVNNRYRYRPLPADLVMQNASGHVGLSSGEICWTNSESFAAWCRFGKREFKAGGEVHSVEQRYFLKVHLSESTAHTLMFRSLEEMIRERRRVDASGILKELSLVTGKE | not soluble
MAHLKKRNRLKKNEDFQKVFKHGTSVANRQFVLYTLDQPENDELRVGLSVSKKIGNAVMRNRIKRLIRQAFLEEKERLKEKDYIIIARKPASQLTYEETKKSLQHLFRKSSLYKKSSSK | soluble
